This is an account of results in paper PMC11700639.

The experiment concerns the target T1, MPZ-GFP (human), P25189.
T1 chain: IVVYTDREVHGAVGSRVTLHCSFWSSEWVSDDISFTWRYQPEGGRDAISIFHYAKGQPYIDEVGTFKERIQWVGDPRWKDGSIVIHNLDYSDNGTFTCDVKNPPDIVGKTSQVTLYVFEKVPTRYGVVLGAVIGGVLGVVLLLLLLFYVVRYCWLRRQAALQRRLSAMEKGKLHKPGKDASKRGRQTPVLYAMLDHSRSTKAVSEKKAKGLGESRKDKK
The experiment in a line: FRET or BRET. The conditions noted are these: remark: other sources report otherwise.

B1: MPZ-mCherry, P25189 30-248 (natural protein)
chain: IVVYTDREVHGAVGSRVTLHCSFWSSEWVSDDISFTWRYQPEGGRDAISIFHYAKGQPYIDEVGTFKERIQWVGDPRWKDGSIVIHNLDYSDNGTFTCDVKNPPDIVGKTSQVTLYVFEKVPTRYGVVLGAVIGGVLGVVLLLLLLFYVVRYCWLRRQAALQRRLSAMEKGKLHKPGKDASKRGRQTPVLYAMLDHSRSTKAVSEKKAKGLGESRKDKK
Regarding B1, the FRET efficiency came to 5.3%.
